Experimental data: doi:10.1101/2020.07.07.187567

Biological target: LhgR, L-2-HG catabolism regulator of Pseudomonas putida W619 (His6-tagged) (Pseudomonas putida W619)
Experiment: SEC

Substance: LhgR, L-2-HG catabolism regulator of Pseudomonas putida W619 (His6-tagged) (natural protein)
- stoichiometry N: 2
